Consider 3 molecules from patent publication US20230044381A1 (GUANGDONG FEIPENG PHARMACEUTICAL, published 2023).

Sequences and labels used below:
T1: mouse PD1 on CHO cells (CHO-mousePD1) (mouse, UniProt Q02242 25-288)
T1 construct: whole, on cells; also called CHO-mPD1
T1 sequence (looked up): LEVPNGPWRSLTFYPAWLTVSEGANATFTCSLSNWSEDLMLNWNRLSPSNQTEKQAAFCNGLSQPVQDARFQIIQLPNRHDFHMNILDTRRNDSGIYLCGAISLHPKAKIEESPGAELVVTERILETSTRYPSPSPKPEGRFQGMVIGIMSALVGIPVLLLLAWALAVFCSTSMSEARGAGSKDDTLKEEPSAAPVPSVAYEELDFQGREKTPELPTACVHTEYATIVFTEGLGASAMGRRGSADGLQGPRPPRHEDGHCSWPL

T2: Human ICOS-hFc (human, UniProt Q9Y6W8 21-140)
T2 construct: Bought (ACRO); also called ICOS (ACRO)
T2 sequence (looked up): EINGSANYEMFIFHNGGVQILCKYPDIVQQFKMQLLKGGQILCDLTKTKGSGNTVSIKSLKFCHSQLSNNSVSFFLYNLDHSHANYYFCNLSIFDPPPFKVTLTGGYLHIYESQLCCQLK

T3: Human CTLA4-hFc (human, UniProt P16410 37-162)
T3 construct: Bought (ACRO); also called CTLA-4 (ACRO)
T3 sequence (looked up): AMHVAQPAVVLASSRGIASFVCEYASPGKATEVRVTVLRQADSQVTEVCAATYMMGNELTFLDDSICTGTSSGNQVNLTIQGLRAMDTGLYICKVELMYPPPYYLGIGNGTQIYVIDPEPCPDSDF

B1: PD-1-112-C2 (antibody, V domains shown)
VH: QVQLQQPGAELVKPGASVKLSCKASGYTFTTYYMYWVKQRPGQGLEWIGGINPSNGGTNFNEKFKSKATLTVDKSSSTAYMQLSSLTSEDSAVYYCTRRDSNYDGGFDYWGQGTTLTVSS
VL: DIVLTQSPASLAVSLGQRATISCRASKSVSTSGYSYMHWYQQKPGQPPKLLIYLAYHLESGVPARFSGSGSGTDFTLNIHPVEEEDAATYYCQHSWELPITFGSGTKLEIKR
notes: Mouse monoclonal antibody from a hybridoma; also called hybridoma clone 112
B2: PD-1-97-C2 (antibody, V domains shown)
VH: EVKLVESGGGLVKPGGSLKLSCAASGFTFSSYGMSWIRQTPEKRLEWVATISGGGRDSYYPDSMKGRFAISRDNAKNNLYLQMSSLRSEDTALYYCTRQLGPAWFAYWGQGTLVTVSA
VL: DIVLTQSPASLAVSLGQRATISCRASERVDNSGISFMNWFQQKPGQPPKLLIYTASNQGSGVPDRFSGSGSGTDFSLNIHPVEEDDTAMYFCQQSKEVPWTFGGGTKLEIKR
notes: Mouse monoclonal antibody from a hybridoma; also called hybridoma clone 97
B3: PD-1-76-C2 (antibody, V domains shown)
VH: QIQLVQSGPELKKPGETVKISCKASGYTFTNYGMNWVKQAPGKGLKWMGWINTHTGEPTYADDFKGRFAFSLETSASTAYLQIKNLKNEDVATYFCTKEGEGIGFAYWGQGTLVTVSA
VL: DVLMTQTPLSLPVSLGDQASISCRSSQSIVYSNGKTYLEWYLQKPGQSPKLLIYKVSNRFSGVPDRFSGSGSGTDFTLKISRVEAEDLGVYYCFQGSHVPNTFGGGTKLEIKR
notes: Mouse monoclonal antibody from a hybridoma; also called PD-76-C2; PD-1-76-02

T5 sequence (Q15116 25-288): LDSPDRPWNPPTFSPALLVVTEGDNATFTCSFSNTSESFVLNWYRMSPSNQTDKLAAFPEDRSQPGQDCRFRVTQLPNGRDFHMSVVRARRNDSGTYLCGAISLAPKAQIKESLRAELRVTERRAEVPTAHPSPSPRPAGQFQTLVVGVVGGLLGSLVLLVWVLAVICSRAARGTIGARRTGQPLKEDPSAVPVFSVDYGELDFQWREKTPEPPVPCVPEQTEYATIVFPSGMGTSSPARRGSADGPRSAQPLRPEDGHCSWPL
T4 sequence (Q15116 25-167 limits assumed): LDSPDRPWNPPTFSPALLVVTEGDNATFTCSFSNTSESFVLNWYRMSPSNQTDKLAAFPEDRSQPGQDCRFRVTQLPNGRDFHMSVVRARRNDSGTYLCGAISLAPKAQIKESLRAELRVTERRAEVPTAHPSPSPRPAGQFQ

The first test has as its target T4, PD-1-his (ACRO) recombinant protein (UniProt Q15116 25-167).
T4 construct: Bought (ACRO); loaded on a HIS1K biosensor
Kind of test: BLI (ForteBio Octet), PD-1-his loaded on HIS1K sensor, antibody in solution.
One may read the Kd as the free concentration of one partner at which half of the binding sites on the other are occupied at equilibrium, for simple one-to-one binding. The term koff denotes the first-order rate constant of dissociation. For orientation: kon means the second-order rate constant of association. Take B1: the dissociation constant Kd stood at 0.0435 nM, the koff worked out at 3.18e-05 s⁻¹ and the on-rate (kon) amounted to 732000 M⁻¹ s⁻¹.
Consider B2, for which the dissociation constant Kd is less than 0.001 nM, the dissociation rate constant (koff) was less than 1e-07 s⁻¹ and the kon is 468000 M⁻¹ s⁻¹.
B3: the Kd is less than 0.001 nM, the koff is less than 1e-07 s⁻¹ and the on-rate (kon) came to 771000 M⁻¹ s⁻¹.

The next test concerns the target T5, human PD-1 on the cell surface (CHO-hPD1 cells; PHA-activated human PBMC) (human, UniProt Q15116 25-288).
T5 construct: whole, on cells; the assay field tells which; also called CHO-PD1
Kind of test: flow cytometry, blocking of PD-L1-hFc (3 µg/ml) on CHO-hPD1 cells, mode 1 (ligand added first). Here is the method:
(§1) The ability of the anti-PD-1 mouse monoclonal antibody to block the binding of the ligand to CHO-hPD1 cells was analyzed by a flow cytometer.
(§2) The plate was centrifuged at 300 g for 5 minutes, cells were washed once with a buffer, a PE-labeled goat anti-human IgG fluorescent antibody (Biolegend) was added, and incubated at 4° C. for 30 minutes. After the cells were washed once by centrifugation, the cells were resuspended in PBS, and then analyzed by a Cyto Flex flow cytometer, to detect the amount of the ligand protein bound to the cells, and the IC₅₀ value of the PD-1 antibody blocking was calculated.
The IC50 is the midpoint of a concentration-inhibition curve. Regarding B1, the concentration for half-maximal inhibition (IC50) stood at 2.57 nM.
Regarding B2, 2.22 nM corresponded to half-maximal inhibition (IC50).
As to B3, the IC50 was 2.28 nM.

Another test has as its target T5, human PD-1 on the cell surface …. Kind of test: flow cytometry on CHO-hPD1 cells. Here is the method:
(§3) In order to evaluate binding of the anti-PD-1 mouse monoclonal antibody to CHO-hPD1, 2×10⁵ CHO-hPD1 cells and the anti-PD-1 mouse monoclonal antibody that diluted in a concentration gradient (the initial concentration was […], 3-fold serial dilution) were added to a 96-well plate. then it was incubated at 4° C. for 30 minutes. After the cells were washed once with a buffer (PBS containing 3% bovine serum albumin (BSA)), PE-labeled anti-mouse IgG(Fc) Ab (Biolegend) fluorescent secondary antibody was added, it was incubated at 4° C. for another 30 minutes. the cells were washed once with the buffer and resuspended in PBS, and then cell suspension was analyzed through flow cytometry by CytoFlex (Beckman flow cytometer), the amount of the antibody bound to the cells was measured according to the mean fluorescence intensity (MFI); the same method was used to evaluate binding of anti-PD-1 mouse monoclonal antibody to a CHO-cyno cell, and a CHO-mousePD1 (sometimes abbreviated as “CHO-mPD1” in the present invention) cell.
A general note: In flow cytometry, cells or beads pass a laser one at a time.
One may read the EC50 as the concentration that produces a half-maximal response. Molecule B1 came in with a 50% effective concentration (EC50) of 0.739 nM.
Take B2: the 50% effective concentration (EC50) was 0.745 nM.
B3 had an EC50 of 0.583 nM.

The target is the same in a further test. Kind of test: flow cytometry on PHA-activated human PBMC. How it is done:
After PBMC was obtained from fresh human peripheral blood by a lymphatic separation fluid gradient centrifugation method, the density was adjusted to 1×10⁶ cells/ml and then inoculated into T75. At the same time, PHA-L (Sigma) at a final concentration of 1 μg/ml was added to stimulate lymphocyte proliferation. After standing in an incubator supplied with 37° C. and 5% CO₂ for 3 days, cell suspension was taken out and centrifuged to remove the supernatant. Cells were resuspended in a buffer (PBS containing 3% BSA), and added into a 96-well U-shaped plate at a density of 2*10⁵ cells/well. And then the anti-PD1 antibody that prepared for a total of 10 concentration gradients (started from 30 μg/ml, diluted in a 3-fold gradient) was added. After incubation at 4° C. for 30 minutes, the plate was centrifuged at 300 g for 5 minutes, cells were washed once with the buffer, A PE-labeled goat anti-human IgG fluorescent antibody (Biolegend) was added, and incubated at 4° C. for 30 minutes; after incubation, the cells were washed once by centrifugation resuspended in PBS, and analyzed by a CytoFlex flow cytometer, to detect the amount of the antibody bound to PBMC.
On to B1, for which a half-maximal effect (EC50) was put at 0.109 nM.
B2 yielded an EC50 of 1.03 nM.
For the molecule B3, the EC50 was 0.02 nM.

The next test deals with T6, monkey PD1 on CHO cells (CHO-cynoPD1) (monkey).
T6 construct: whole, on cells
Kind of test: flow cytometry on CHO-cynoPD1 cells. How it is done:
as §3
On to B1, for which it took 0.463 nM to reach a half-maximal effect (EC50).
Molecule B2 had an EC50 of 0.578 nM.
Molecule B3 returned an EC50 of 0.576 nM.

The next test addresses T1, mouse PD1 on CHO cells (CHO-mousePD1). Kind of test: flow cytometry on CHO-mousePD1 cells. Here is the method:
as §3
For B1, the binding result is listed as “no binding”.
As for B2, the binding result is “no binding”.
The same measure, in the same setting: the entry for B3 is “no binding”.

For another test, the target named is T5, human PD-1 on the cell surface …. Kind of test: flow cytometry, blocking of PD-L2-hFc (3 µg/ml) on CHO-hPD1 cells, mode 2 (antibody added first). How it is done: as §1, §2
B1 returned an IC50 of 3.73 nM.
The molecule B2 displayed an IC50 of 3.49 nM.
Molecule B3 returned an IC50 of 3.11 nM.

A further test deals with T7, Human PD-1-hFc (human, UniProt Q15116 25-167).
T7 construct: Bought (ACRO); also called PD-1 (ACRO)
T7 sequence (Q15116 25-167): as the sequence (Q15116 25-167 limits assumed) above
Kind of test: ELISA, antigen coated at 1 µg/ml, antibody 10 µg/ml. How it is done: (§4) To verify the specificity of the antibody binding to PD-1, the binding assay of anti-PD-1 mouse monoclonal antibody with four different CD28 family member proteins was conducted. […] Anti-mouse IgG coupled with peroxidase (HRP) was used as a secondary antibody (Sigma). The color was developed by TMB, and after reaction termination, the absorbance was read by a microplate reader.
In the case of B1, the OD value is 2.12 OD.
On to B2, for which the OD value was determined as 2.37 OD.
Still for that read-out and setting: the value for B3 was 2.46 OD.

In another test the target is T2, Human ICOS-hFc. The test is described as above. Here is the method: as §4
For the molecule B1, the OD value was determined as 0.062 OD.
In turn, B2 registered an OD value of 0.0636 OD.
With B3, the OD value came to 0.076 OD.

The next test deals with T3, Human CTLA4-hFc. Described as above. Here is the method: as §4
With B1, the OD value was 0.131 OD.
As to B2, the OD value came to 0.129 OD.
B3 had an OD value of 0.146 OD.

The target of another test is T8, Human CD28-hFc (human, UniProt P10747 19-152).
T8 construct: Bought (ACRO); also called CD28 (ACRO)
T8 sequence (P10747 19-152): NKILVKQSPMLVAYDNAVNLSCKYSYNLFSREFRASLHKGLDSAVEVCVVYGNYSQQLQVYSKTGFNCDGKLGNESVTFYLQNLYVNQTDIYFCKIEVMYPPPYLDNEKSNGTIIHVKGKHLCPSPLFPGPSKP
The description is as above. How it is done:
as §4
Take B1: the OD value is 0.0625 OD.
Turning to B2, the OD value is 0.0606 OD.
The molecule B3 came in with an OD value of 0.0616 OD.

A further test concerns the target T5, human PD-1 on the cell surface …. Kind of test: flow cytometry, blocking of PD-L1-hFc (3 µg/ml) on CHO-hPD1 cells, mode 2 (antibody added first). How it is done:
as §1, §2
B1 displayed a half-maximal inhibitory concentration (IC50) of 1.55 nM.
On the same count and under the same terms, the figure for B2 is 1.62 nM; for B3 it is 1.4 nM.

The target of another test is T2, Human ICOS-hFc. Kind of test: ELISA, antigen coated at 1 µg/ml. How it is done:
as §4
(An ELISA detects its analyte on a solid surface through an enzyme-linked reagent.)
Consider B1, for which the binding result is recorded as “no binding (tested: 10 µg/ml)”.
Take B2: the binding result was “no binding (tested: 10 µg/ml)”.
As for B3, the binding result is “no binding (tested: 10 µg/ml)”.

Another test addresses T3, Human CTLA4-hFc. Kind of test: ELISA, antigen coated at 1 µg/ml. Here is the method:
as §4
On to B1, for which the binding result is “no binding (tested: 10 µg/ml)”.
On to B2, for which the binding result is on record as “no binding (tested: 10 µg/ml)”.
With B3, the binding result is recorded as “no binding (tested: 10 µg/ml)”.

A further test deals with T8, Human CD28-hFc. Kind of test: ELISA, antigen coated at 1 µg/ml. How it is done: as §4
For the molecule B1, the binding result is “no binding (tested: 10 µg/ml)”.
Same read-out and setting: the entry for B2 is “no binding (tested: 10 µg/ml)”; for B3 it is “no binding (tested: 10 µg/ml)”.

In the next test the target is T5, human PD-1 on the cell surface …. Kind of test: flow cytometry, blocking of PD-L2-hFc (3 µg/ml) on CHO-hPD1 cells, mode 1 (ligand added first). How it is done: as §1, §2
B1: the half-inhibitory concentration (IC50) worked out at 4.61 nM.
The molecule B2 returned an IC50 of 7.54 nM.
The same measure, in the same setting: the value for B3 was 4.67 nM.
